Three molecules from PMC4245933 can be followed below.

As a reminder, the Kd is a measure of binding affinity in units of concentration. Low readings indicate a tighter complex, high ones a looser complex.

For data set [1], the target named is T1, His-KDM4D-FL (human, UniProt Q6B0I6 1-523).
T1 sequence: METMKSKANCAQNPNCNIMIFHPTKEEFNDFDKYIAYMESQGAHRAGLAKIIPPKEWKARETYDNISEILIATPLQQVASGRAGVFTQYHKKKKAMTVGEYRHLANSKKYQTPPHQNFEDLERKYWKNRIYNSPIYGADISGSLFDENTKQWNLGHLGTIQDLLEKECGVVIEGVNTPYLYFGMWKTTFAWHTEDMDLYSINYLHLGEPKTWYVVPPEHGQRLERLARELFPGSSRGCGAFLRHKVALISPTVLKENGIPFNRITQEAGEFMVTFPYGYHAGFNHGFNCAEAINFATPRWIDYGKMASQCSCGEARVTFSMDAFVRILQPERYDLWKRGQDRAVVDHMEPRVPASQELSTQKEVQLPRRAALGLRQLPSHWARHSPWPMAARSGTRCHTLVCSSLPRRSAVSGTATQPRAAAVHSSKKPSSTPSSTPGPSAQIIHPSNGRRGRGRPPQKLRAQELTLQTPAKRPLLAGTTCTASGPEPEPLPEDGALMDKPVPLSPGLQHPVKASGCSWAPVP
Nature of the data set: EMSA. In general terms: In EMSA bound probe runs differently from free probe, usually more slowly.

Another data set has as its target T2, GST-KDM4D348-523 (human, UniProt Q6B0I6 348-523).
T2 sequence: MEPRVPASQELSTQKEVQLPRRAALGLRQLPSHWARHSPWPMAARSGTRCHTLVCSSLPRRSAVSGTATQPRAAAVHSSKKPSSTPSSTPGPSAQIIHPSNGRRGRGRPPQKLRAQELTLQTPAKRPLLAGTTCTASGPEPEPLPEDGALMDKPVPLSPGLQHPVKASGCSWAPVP
Nature of the data set: EMSA.

In data set [2] the target is T3, His-KDM4D1-350 (human, UniProt Q6B0I6 1-350).
T3 sequence: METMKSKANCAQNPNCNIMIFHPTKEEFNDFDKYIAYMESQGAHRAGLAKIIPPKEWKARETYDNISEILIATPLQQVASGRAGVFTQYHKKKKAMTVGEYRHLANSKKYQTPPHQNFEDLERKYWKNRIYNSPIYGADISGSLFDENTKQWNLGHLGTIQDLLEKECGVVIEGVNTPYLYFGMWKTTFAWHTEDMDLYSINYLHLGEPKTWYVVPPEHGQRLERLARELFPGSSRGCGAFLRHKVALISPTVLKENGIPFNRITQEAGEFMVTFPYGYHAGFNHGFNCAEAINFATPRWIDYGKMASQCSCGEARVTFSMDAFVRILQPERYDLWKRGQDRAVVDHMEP
Nature of the data set: EMSA.

The target of the next data set is T4, His-KDM4D-N202M (human, UniProt Q6B0I6 1-523, N202M).
T4 sequence: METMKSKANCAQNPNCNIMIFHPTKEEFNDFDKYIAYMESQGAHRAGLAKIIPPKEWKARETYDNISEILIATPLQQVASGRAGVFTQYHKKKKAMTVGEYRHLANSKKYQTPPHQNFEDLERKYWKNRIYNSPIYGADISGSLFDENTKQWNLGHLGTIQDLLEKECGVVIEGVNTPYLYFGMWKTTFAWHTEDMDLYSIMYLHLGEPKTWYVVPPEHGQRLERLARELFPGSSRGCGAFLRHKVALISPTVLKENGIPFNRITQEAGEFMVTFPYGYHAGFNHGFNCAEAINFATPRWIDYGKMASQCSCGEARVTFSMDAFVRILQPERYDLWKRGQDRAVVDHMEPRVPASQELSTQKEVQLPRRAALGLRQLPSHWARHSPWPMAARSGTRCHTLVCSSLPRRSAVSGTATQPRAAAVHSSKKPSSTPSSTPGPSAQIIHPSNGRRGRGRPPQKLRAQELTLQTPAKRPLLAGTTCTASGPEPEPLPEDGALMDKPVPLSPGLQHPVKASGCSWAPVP
Nature of the data set: EMSA.

The target in a further data set is T5, His-KDM4D-FL-1H4R-HRK (human, UniProt Q6B0I6 1-523, H115A;R123A;K127A;H219A;R222A;R225A;R228A;R236A).
T5 sequence: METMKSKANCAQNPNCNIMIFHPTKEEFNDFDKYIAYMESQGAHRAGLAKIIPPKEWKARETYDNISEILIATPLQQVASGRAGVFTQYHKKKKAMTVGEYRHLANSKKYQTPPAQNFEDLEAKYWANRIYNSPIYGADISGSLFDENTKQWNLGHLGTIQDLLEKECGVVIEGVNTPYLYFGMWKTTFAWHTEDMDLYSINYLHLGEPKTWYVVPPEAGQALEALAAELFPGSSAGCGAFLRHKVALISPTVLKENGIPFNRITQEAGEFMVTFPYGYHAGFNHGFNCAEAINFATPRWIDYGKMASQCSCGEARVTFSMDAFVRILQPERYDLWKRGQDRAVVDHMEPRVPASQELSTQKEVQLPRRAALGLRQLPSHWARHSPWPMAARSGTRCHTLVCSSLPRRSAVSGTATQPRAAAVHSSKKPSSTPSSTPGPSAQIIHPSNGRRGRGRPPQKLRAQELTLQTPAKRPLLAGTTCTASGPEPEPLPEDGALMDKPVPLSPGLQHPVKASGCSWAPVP
Nature of the data set: EMSA.

The target of the next data set is T6, His-KDM4D1-350-1H4R-HRK (human, UniProt Q6B0I6 1-350, H115A;R123A;K127A;H219A;R222A;R225A;R228A;R236A).
T6 sequence: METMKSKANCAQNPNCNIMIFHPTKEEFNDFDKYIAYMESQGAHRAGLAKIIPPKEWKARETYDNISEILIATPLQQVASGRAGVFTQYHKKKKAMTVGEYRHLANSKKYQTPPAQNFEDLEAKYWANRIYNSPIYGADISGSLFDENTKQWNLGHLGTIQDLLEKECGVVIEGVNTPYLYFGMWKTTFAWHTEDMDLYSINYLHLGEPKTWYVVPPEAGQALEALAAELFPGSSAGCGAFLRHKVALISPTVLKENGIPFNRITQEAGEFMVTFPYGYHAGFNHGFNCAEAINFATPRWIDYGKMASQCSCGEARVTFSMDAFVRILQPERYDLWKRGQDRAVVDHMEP
Nature of the data set: fluorescence anisotropy. (In general: Fluorescence polarisation rises when a labelled molecule tumbles more slowly, as on binding a larger partner.)

Data set [3] has as its target T1, His-KDM4D-FL. Kind of data set: fluorescence anisotropy.
For data set [4], the target named is T3, His-KDM4D1-350. Kind of data set: fluorescence anisotropy.

In the case of GGGCGAAUUGGGCCCGACGUCGCAUGCUCCCGGCCGC (ssRNA) [37nt RNA], the dissociation constant (Kd) with His-KDM4D-FL [1] was < 50 nM.

B1: 100nt RNA (ssRNA)
RNA: GGGCGAAUUGGGCCCGACGUCGCAUGCUCCCGGCCGCCAUGGCGGCCGCGGGAAUUCGAUUAGUUCCCCUAAUAAUCGGUGCCCCCGAUAUGGCGUUUA
As for B1, the Kd with GST-KDM4D348-523 was > 100 nM; in the data set with His-KDM4D-FL [1], ~20 nM; in the data set with His-KDM4D1-350 [2], ~80 nM; with His-KDM4D-N202M, ~15 nM; with His-KDM4D-FL-1H4R-HRK, > 100 nM.

Turning to UUAACACAAAAUACGCACCCCA (ssRNA) [22nt RNA (RNAF-22)], the binding result in the data set with His-KDM4D1-350-1H4R-HRK was “no binding”. Further, the Kd in the data set with His-KDM4D-FL [3] was ~126 nM; with His-KDM4D1-350 [4] it was ~1220 nM.
